Among the data in article PMC5923229 are Kd values, retold here.

For assay [1], the target named is H46R/H48Q SOD1 artificial copper site mutant (UniProt P00441). Kind of assay: native MS; nanoESI of SOD1 at different protein concentrations in 200 mM NH4OAc (pH 6.8), gentle conditions; monomer and dimer signal compared; dimer to monomers.
For assay [2], the target named is H46R/H48Q SOD1 with ebselen conjugated at Cys111 (UniProt P00441). Described as above.

In assay [1], “H46R/H48Q SOD1 artificial copper site mutant (from UniProt P00441 2-154) (enzyme)” yielded a dissociation constant Kd of 5300 nM.

“H46R/H48Q SOD1 with ebselen conjugated at Cys111 (from UniProt P00441 2-154) (enzyme)”: in assay [2], the equilibrium dissociation constant (Kd) worked out at 220 nM.

In general, Kd refers to the equilibrium constant for the complex coming apart.
